Four molecules from publication PMC5125647, “Multivalent Interactions of Human Primary Amine Oxidase with the V and C2_(2) Domains of Sialic Acid-Binding Immunoglobulin-Like Lectin-9 Regulate Its Binding and Amine Oxidase Activity” (PLoS ONE, 2016) can be followed below.

Numbering of substitutions follows the chain as printed. Names may count otherwise.

The target of data set [1] is T1, human primary amine oxidase (hAOC3) (human, UniProt Q16853 1-763, topaquinone (TPQ) cofactor, modified from Tyr471; N-glycans attached to N137, N232, N294, N592, N618 and N666, with sialic acids).
T1 construct: human primary amine oxidase (AOC3, VAP-1); In the functional assays hAOC3 stood on live CHO-hAOC3 cells or in CHO-hAOC3 lysate; also called vascular adhesion protein-1; VAP-1
T1 sequence: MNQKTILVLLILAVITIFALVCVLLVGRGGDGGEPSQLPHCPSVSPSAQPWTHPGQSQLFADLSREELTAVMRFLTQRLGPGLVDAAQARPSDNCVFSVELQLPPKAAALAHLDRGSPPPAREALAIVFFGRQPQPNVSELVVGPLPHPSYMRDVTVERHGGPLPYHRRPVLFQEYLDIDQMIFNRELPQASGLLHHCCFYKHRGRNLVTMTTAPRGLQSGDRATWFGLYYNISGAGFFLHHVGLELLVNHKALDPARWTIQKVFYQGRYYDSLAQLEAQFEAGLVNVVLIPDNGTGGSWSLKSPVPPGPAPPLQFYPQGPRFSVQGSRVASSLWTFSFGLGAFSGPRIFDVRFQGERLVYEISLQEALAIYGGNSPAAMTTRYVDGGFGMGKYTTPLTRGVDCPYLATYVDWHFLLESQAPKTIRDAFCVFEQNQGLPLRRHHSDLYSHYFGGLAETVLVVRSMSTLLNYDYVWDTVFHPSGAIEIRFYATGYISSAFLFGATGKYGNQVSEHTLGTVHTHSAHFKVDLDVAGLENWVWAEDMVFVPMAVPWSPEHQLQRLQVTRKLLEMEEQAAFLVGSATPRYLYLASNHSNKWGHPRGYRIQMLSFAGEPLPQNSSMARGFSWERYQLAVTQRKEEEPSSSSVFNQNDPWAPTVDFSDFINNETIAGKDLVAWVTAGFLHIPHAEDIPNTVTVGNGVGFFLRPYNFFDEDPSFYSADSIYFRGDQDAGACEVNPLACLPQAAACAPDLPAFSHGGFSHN
Nature of the data set: SPR; BiacoreX; hAOC3 amine-coupled to a CM5 chip (10 000 RU); 20 ul of 0.3-31 uM Siglec-9-EC injected at 25 C; running buffer HBS (10 mM HEPES, 150 mM NaCl, pH 7.4) with 0.005% Surfactant-P20; apparent Kd from responses at the end of injection against concentration, steady state and one-to-one model assumed, non-linear regression (GraphPad); two protein preparations. Particulars: both partners purified.

Data set [2] deals with the molecule itself. Description: SEC; Superdex 200 10/300 GL, 20 mM HEPES pH 7.4, 150 mM NaCl; size from the retention time against standard proteins.
Data set [3] addresses T1, human primary amine oxidase (hAOC3). Description: cell-based or functional assay.
The target is the same in data set [4]. Nature of the data set: SPR; hAOC3 immobilised; five to seven concentrations of Siglec-9-EC, R284S or R290S; kon and koff determined separately for every curve with Biaeval, Kd as their ratio; average without the highest and lowest value. Conditions: both partners purified.
For data set [5] the target is unchanged. Described as above. Conditions: both partners purified. The source holds these as a separate data set.
For data set [6] the target is unchanged. Nature of the data set: SPR; hAOC3 immobilised; one concentration (0.5 uM) of each Siglec-9 protein; relative binding normalised to the first control condition. Particulars: both partners purified.

B1: Siglec-9-EC (extracellular region of sialic acid-binding immunoglobulin-like lectin-9, V-C2_(12); residues 26-348) (domain or fragment, UniProt Q9Y336 26-348, looked up)
chain: QSSVTVQEGLCVHVPCSFSYPSHGWIYPGPVVHGYWFREGANTDQDAPVATNNPARAVWEETRDRFHLLGDPHTKNCTLSIRDARRSDAGRYFFRMEKGSIKWNYKHHRLSVNVTALTHRPNILIPGTLESGCPQNLTCSVPWACEQGTPPMISWIGTSVSPLDPSTTRSSVLTLIPQPQDHGTSLTCQVTFPGASVTTNKTVHLNVSYPPQNLTMTVFQGDGTVSTVLGNGSSLSLPEGQSLRLVCAVDAVDSNPPARLSLSWRGLTLCPSQPSNPGVLELPWVHLRDAAEFTCRAQNPLGSQQVYLNVSLQSKATSGVTQG
notes: Siglec-9, UniProtKB Q9Y336, extracellular region with the V, C2_(1) and C2_(2) domains, residues 26-348; The construct has a secretion signal for insect cell production before the tags; The His tag is called cleavable, but no cleavage is described; Dimer by SEC retention (85 kDa); Insect-cell glycosylation; eight putative N-glycosylation sites; Cloning details are in S1 Text; also called WT; …
Take B1: in data set [1], the Kd turned out to be 4600 ± 930 nM. For the same molecule, the “stoichiometry N” value in data set [2] stood at 2. Also, the “amine oxidase activity of intact CHO-hAOC3 cells on [7-14C]benzylamine with 5 uM Siglec-9-EC added before the substrate (a similar increase with 1 uM in Fig 7C)” value in data set [3] amounted to 2 fold. Further, in data set [4], the “maximal binding at the highest concentration” value (from here on “maximal binding”) stood at 3120 RU. Further, in data set [5], the Kd is 1040 ± 870 nM, the koff was 0.00691 s⁻¹ and the on-rate (kon) stood at 11200 M⁻¹ s⁻¹.

B2: Siglec-9-EC/R284S (domain or fragment, UniProt Q9Y336 26-348, looked up)
chain: B1 chain with R259S
notes: Siglec-9, UniProtKB Q9Y336, extracellular region, residues 26-348, with R284S in the C2_(2) domain; Made from the Siglec-9-EC production vector by site-directed mutagenesis; also called R284S mutant; source: baculovirus, Tn5 (High Five) insect cells, secreted into the medium, purified (Ni2+ resin, Superdex 200 gel filtration)
With B2, the “maximal binding” value in data set [4] amounted to 1130 RU. In data set [5], the Kd turned out to be 140 nM, the off-rate constant (koff) worked out at 0.00373 s⁻¹ and the kon amounted to 32100 M⁻¹ s⁻¹.

B3: Siglec-9-EC/R290S (domain or fragment, UniProt Q9Y336 26-348, looked up)
chain: B1 chain with R265S
notes: Siglec-9, UniProtKB Q9Y336, extracellular region, residues 26-348, with R290S in the C2_(2) domain; Made from the Siglec-9-EC production vector by site-directed mutagenesis; also called R290S mutant; source: baculovirus, Tn5 (High Five) insect cells, secreted into the medium, purified (Ni2+ resin, Superdex 200 gel filtration)
Turning to B3, the “maximal binding” value in data set [4] worked out at 1760 RU. Further, in data set [5], the Kd was 530 ± 500 nM, the koff worked out at 0.0031 s⁻¹ and the association rate constant (kon) came out at 11000 M⁻¹ s⁻¹.

B4: Siglec-9-ΔV (C2_(12); residues 145-348) (domain or fragment, UniProt Q9Y336 145-348, looked up)
chain: RPNILIPGTLESGCPQNLTCSVPWACEQGTPPMISWIGTSVSPLDPSTTRSSVLTLIPQPQDHGTSLTCQVTFPGASVTTNKTVHLNVSYPPQNLTMTVFQGDGTVSTVLGNGSSLSLPEGQSLRLVCAVDAVDSNPPARLSLSWRGLTLCPSQPSNPGVLELPWVHLRDAAEFTCRAQNPLGSQQVYLNVSLQSKATSGVTQG
notes: Siglec-9, UniProtKB Q9Y336, C2_(1) and C2_(2) domains without the V domain, residues 145-348; The construct has a secretion signal for insect cell production before the tags; also called Siglec-9-EC-ΔV; source: baculovirus, Tn5 (High Five) insect cells, secreted into the medium, purified (Ni2+ resin, Superdex 200 gel filtration)
On to B4, for which, in data set [6], the “binding relative to WT” value was under 10%.
